Experimental findings from patent US10143747B2, “Breast cancer therapeutics” (IMBA—INSTITUT FÜR MOLEKULARE BIOTECHNOLOGIE GMBH, priority 2010, dated 2018) are described below.

The test system of this experiment is human SKBR3 breast cancer cells. As to the kind of experiment: Soft-Agar Colony Formation Assay (anchorage-independent growth). As to conditions: OPG 1 μg/ml with RANKL 1 μg/ml, 18 days in culture. The format is cell-based. As to the method:
a, Western blotting for phosphorylated (P) IKKα, total IKKα, phosphorylated (P) p65 NFκB, total p65 NFκB, phosphorylated (P) IκBα, and total IκBα in isolated primary mouse mammary gland epithelial cells (MECs) in response to RANKL stimulation (1 μg/ml). β-actin is shown as loading control. b, Western blotting for IKKα, IKKβ, IKKγ, phosphorylated (P) p65 NFκB, total p65 NFκB, phosphorylated (P) IκBα, and total IκBα in pooled late stage mammary adenocarconimas (n=4 for each lane) that developed in control, RANK^Δmam and IKKΔ^Δmam females. β-actin is shown as loading control c, Expression of RANK, CyclinD1, and p21 mRNA in late stage mammary adenocacinomas that developed in control, RANK^Δmam, and IKKα^Δmam females. Expression was determined by qRT-PCR. Data are mean values+/−sem. n=4 per group. d, Soft-Agar Colony Formation Assay. Growth of human SKBR3 breast cancer cells in soft agar in response to stimulation with RANKL (1 μg/ml) or EGF (100 ng/ml). Anchorage-independent, macroscopic colonies formed after 18 days in culture with RANKL, which was prevented by the decoy receptor OPG (1 μg/ml). […] Apoptosis was detected by immunostaining for active Caspase 3. f, Apoptotic nuclei of epithelial cells (arrows) are shown for representative mammary gland sections. Magnifications×40. g, Quantification of mammary epithelial apoptosis. A minimum of 5000 nuclei was counted for each mouse. […]

B1: OPG: secreted decoy receptor of RANKL, used as RANKL inhibitor (1 μg/ml) (protein, UniProt O00300 22-401, looked up)
Tumor necrosis factor …: ETFPPKYLHYDEETSHQLLCDKCPPGTYLKQHCTAKWKTVCAPCPDHYYTDSWHTSDECLYCSPVCKELQYVKQECNRTHNRVCECKEGRYLEIEFCLKHRSCPPGFGVVQAGTPERNTVCKRCPDGFFSNETSSKAPCRKHTNCSVFGLLLTQKGNATHDNICSGNSESTQKCGIDVTLCEEAFFRFAVPTKFTPNWLSVLVDNLPGTKVNAESVERIKRQHSSQEQTFQLLKLWKHQNKDQDIVKKIIQDIDLCENSVQRHIGHANLTFEQLRSLMESLPGKKVGAEDIEKTIKACKPSDQILKLLSLWRIKNGDQDTLKGLMHALKHSKTYHFPKTVTQSLKKTIRFLHSFTMYKLYQKLFLEMIGNQVQSVKISCL
With B1, the “effect on RANKL-induced anchorage-independent macroscopic colonies” value was “prevented”.
